Results on two molecules are retold here after EP4793288A1.

Positions count from the first letter of the chain named.

The target of the assay is Recombinant HLA-G antigen (human) (UniProt P17693). As to the kind of experiment: monoclonal phage ELISA, Fab on phage, anti-M13 HRP (selection threshold).

B1: T22A4 (Fab clone displayed on phage) (Fab, V domains shown)
VH: EVQLVESGGNWVQPGGSLRLSCAASGFSFRSYAMSWVRQAPGKGLEWVSSISGSGNSELYAGSVKGRFTISRDNSKNTLSLQLHSLRAEDTAMYYCAKFSAAVGFLPDYFDSWGQGTLVTVSS
VL: ELTLTQSPSSLSASVGDRVTITCQASHDISKYLNWYQQKSGKAPKLLIYDASNLETGVPSRFSGSGSGTDFTLTISSLQPEDFATYYCQQSYRTPLTFGGGTKLEIK
In the case of B1, the absorbance (OD450) was over 0.4 OD450.

B2: T23D5 (Fab clone displayed on phage) (Fab, V domains shown)
VH: QVQLQESGPGLVKPSETLSLTCTVSGGSIDRSSHYWGWIRQPPGKGLEWLGSIYYSGITYYNPSLKSRVTISVDTSRNQFSLTLSSVTAADTAVYYCARHGSYDSWAGRYKWDRFDPWGQGTPVTVSS
VL: B1 VL with T3Q, L4M, R93S, L104V
On to B2, for which the absorbance (OD450) was over 0.4 OD450.
